B1: Angiopoietin-2 (Homo sapiens), O15123-1 (parent)
chain: MWQIVFFTLSCDLVLAAAYNNFRKSMDSIGKKQYQVQHGSCSYTFLLPEMDNCRSSSSPYVSNAVQRDAPLEYDDSVQRLQVLENIMENNTQWLMKLENYIQDNMKKEMVEIQQNAVQNQTAVMIEIGTNLLNQTAEQTRKLTDVEAQVLNQTTRLELQLLEHSLSTNKLEKQILDQTSEINKLQDKNSFLEKKVLAMEDKHIIQLQSIKEEKDQLQVLVSKQNSIIEELEKKIVTATVNNSVLQKQQHDLMETVNNLLTMMSTSNSAKDPTVAKEEQISFRDCAEVFKSGHTTNGIYTLTFPNSTEEIKAYCDMEAGGGGWTIIQRREDGSVDFQRTWKEYKVGFGNPSGEYWLGNEFVSQLTNQQRYVLKIHLKDWEGNEAYSLYEHFYLSSEELNYRIHLKGLTGTAGKISSISQPGNDFSTKDGDNDKCICKCSQMLTGGWWFDACGPSNLNGMYYPQRQNTNKFNGIKWYYWKGSGYSLKATTMMIRPADF

Variants of: B1
Conditions: with tie2_human TEK

| Variant | effect of a mutation on the interaction |
| --- | --- |
| MWQIVFFTLSCDLVLAAAYNNFRKSMDSIGKKQYQVQHGSCSYTFLLPEMDNCRSSSSPYVSNAVQRDAPLEYDDSVQRLQVLENIMENNTQWLMKLENYIQDNMKKEMVEIQQNAVQNQTAVMIEIGTNLLNQTAEQTRKLTDVEAQVLNQTTRLELQLLEHSLSTNKLEKQILDQTSEINKLQDKNSFLEKKVLAMEDKHIIQLQSIKEEKDQLQVLVSKQNSIIEELEKKIVTATVNNSVLQKQQHDLMETVNNLLTMMSTSNSAKDPTVAKEEQISFRDCAEVFKSGHTTNGIYTLTFPNSTEEIKAYCDMEAGGGGWTIIQRREDGSVDFQRTWKEYKVGFGNPSGEYWLGNEFVSQLTNQQRYVLKIHLKDWEGNEAYSLYEHFYLSSEELNYRIHLKGLTGTAGKISSISQPGNDFSTKDGDNDKCICKCSQMLTGGWWFDACGPSNLNGMYYPQRQNTNEFNGIEWYYWKGSGYSLKATTMMIRPADF [K468E;K473E] | disrupting interaction |
| MWQIVFFTLSCDLVLAAAYNNFRKSMDSIGKKQYQVQHGSCSYTFLLPEMDNCRSSSSPYVSNAVQRDAPLEYDDSVQRLQVLENIMENNTQWLMKLENYIQDNMKKEMVEIQQNAVQNQTAVMIEIGTNLLNQTAEQTRKLTDVEAQVLNQTTRLELQLLEHSLSTNKLEKQILDQTSEINKLQDKNSFLEKKVLAMEDKHIIQLQSIKEEKDQLQVLVSKQNSIIEELEKKIVTATVNNSVLQKQQHDLMETVNNLLTMMSTSNSAKDPTVAKEEQISFRDCAEVFKSGHTTNGIYTLTFPNSTEEIKAYCDMEAGGGGWTIIQRREDGSVDFQRTWKEYKVGFGNPSGEYWLGNEFVSQLTNQQRYVLKIHLKDWEGNEAYSLYEHFYLSSEELNYRIHLKGLTGTAGKISSISQPGNDFSTKDGDNDKCICKCSQMLTGGWWFDACGPSNLNGMYYPQRQNTNKANGIKWAAWKGSGYSLKATTMMIRPADF [F469A;Y475A;Y476A] | disrupting interaction |

Reference: IntAct's records for PubMed 15893672
